Assay results reported in article doi:10.1101/2020.01.26.920348.

How the values were obtained:
Experiment in all cases: FRET or BRET
[1] = target: YFP-preIQ3-IQD-PCRDC (not stated (human or rat cDNA cloned) | human)
[2] = target: YFP-preIQ3-IQD-PCRDS (not stated (human or rat cDNA cloned) | mouse)
[3] = target: YFP-preIQ3-IQD-PCRDD (not stated (human or rat cDNA cloned)) (UniProt Q01668)
Chain of UniProt Q01668 (Q01668 whole entry): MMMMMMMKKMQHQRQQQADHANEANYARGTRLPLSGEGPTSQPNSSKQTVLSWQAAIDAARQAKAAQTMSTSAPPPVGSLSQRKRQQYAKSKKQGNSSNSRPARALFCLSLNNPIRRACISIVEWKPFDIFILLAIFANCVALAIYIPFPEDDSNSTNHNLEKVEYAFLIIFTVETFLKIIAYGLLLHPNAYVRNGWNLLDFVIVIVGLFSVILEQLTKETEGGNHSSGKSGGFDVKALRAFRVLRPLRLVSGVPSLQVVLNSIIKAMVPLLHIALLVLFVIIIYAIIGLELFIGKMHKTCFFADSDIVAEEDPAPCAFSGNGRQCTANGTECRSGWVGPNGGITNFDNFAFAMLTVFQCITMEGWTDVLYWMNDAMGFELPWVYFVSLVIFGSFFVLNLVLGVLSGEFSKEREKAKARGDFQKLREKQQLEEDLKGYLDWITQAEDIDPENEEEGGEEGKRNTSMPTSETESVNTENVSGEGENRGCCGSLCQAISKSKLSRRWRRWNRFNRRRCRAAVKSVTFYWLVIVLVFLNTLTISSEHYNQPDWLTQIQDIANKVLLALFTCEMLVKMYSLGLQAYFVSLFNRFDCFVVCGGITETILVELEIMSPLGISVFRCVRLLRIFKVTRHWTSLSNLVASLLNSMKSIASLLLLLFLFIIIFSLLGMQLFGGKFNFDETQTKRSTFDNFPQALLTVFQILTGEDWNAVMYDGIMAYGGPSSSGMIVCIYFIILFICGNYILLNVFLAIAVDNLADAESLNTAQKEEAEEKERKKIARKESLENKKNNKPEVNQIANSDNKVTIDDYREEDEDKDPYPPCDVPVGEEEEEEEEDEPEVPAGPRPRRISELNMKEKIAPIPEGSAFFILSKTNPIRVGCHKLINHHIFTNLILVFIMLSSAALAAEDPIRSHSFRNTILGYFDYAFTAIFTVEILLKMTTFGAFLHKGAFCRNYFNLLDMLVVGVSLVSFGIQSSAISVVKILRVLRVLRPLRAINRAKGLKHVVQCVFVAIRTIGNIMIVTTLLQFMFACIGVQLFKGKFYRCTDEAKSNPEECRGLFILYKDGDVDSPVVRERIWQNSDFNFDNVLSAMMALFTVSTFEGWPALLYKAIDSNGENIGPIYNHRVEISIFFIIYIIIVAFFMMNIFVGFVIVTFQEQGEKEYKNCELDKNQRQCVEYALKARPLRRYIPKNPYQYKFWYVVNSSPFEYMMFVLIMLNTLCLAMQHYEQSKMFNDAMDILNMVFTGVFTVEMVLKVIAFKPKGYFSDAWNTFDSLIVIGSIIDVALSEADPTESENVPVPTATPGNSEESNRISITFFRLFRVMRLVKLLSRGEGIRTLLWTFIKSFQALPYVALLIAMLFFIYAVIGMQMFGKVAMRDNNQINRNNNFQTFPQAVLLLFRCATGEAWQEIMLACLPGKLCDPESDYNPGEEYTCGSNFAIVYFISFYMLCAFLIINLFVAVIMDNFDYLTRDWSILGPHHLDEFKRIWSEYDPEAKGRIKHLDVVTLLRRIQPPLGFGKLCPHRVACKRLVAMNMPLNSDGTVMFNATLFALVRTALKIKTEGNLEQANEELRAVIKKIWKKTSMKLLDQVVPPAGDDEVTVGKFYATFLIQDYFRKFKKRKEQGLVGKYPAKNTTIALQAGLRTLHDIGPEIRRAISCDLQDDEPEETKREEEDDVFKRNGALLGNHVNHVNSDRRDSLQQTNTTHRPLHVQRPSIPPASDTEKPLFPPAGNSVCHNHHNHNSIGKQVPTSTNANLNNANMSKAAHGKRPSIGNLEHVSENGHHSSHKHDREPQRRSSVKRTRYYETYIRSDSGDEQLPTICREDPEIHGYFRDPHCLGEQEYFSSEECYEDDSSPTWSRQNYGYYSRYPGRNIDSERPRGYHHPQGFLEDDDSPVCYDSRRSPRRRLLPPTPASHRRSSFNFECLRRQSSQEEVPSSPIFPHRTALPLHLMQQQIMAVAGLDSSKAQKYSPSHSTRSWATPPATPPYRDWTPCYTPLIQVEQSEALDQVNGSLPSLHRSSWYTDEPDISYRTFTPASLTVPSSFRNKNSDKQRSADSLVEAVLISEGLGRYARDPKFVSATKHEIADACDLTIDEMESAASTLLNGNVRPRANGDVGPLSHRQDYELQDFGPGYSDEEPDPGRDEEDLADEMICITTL

Question: For “CFP-DCRDC (distal C-terminal regulatory domain of CaV1.2) (from UniProt Q13936 1-2221) (domain or fragment)”, which relative Kd (normalised to Kd of PD/DF) [1] is on record?
Answer: 11.2

Question: Which relative Kd (normalised to Kd of PD/DF) [2] does the source give for “CFP-DCRDS (distal C-terminal regulatory domain of CaV1.1) (from UniProt Q02789 1-1852) (domain or fragment)” here?
Answer: 18.7

Question: With “PCRDC-DCRDF peptide (PCRD of CaV1.2 joined to DCRD of CaV1.4)” as the substance, how does the relative Kd (normalised to Kd of PD/DF) [3] read?
Answer: 2.3
